Results as given in US20040005647A1 (University of California, published 2004).
Values joined by “and” are separate entries in the source; they are usually repeats but may differ in a detail not shown here. Equal entries are not always repeated.

Key:
[1] = molecular target: T1, MUC-1 antigen expressed on MCF-7 human breast adenocarcinoma cells (human, UniProt P15941 24-1255); test: immunohistochemistry on a section of the same prostate cancer; biotinylated anti-mouse antibody and colour reagent
T1 construct: whole, on cells; Scatchard analysis and immunocytochemistry used MCF-7 cells; also called MUC-1 mucin; MUC-1 membrane antigen
T1 sequence (P15941 24-1255): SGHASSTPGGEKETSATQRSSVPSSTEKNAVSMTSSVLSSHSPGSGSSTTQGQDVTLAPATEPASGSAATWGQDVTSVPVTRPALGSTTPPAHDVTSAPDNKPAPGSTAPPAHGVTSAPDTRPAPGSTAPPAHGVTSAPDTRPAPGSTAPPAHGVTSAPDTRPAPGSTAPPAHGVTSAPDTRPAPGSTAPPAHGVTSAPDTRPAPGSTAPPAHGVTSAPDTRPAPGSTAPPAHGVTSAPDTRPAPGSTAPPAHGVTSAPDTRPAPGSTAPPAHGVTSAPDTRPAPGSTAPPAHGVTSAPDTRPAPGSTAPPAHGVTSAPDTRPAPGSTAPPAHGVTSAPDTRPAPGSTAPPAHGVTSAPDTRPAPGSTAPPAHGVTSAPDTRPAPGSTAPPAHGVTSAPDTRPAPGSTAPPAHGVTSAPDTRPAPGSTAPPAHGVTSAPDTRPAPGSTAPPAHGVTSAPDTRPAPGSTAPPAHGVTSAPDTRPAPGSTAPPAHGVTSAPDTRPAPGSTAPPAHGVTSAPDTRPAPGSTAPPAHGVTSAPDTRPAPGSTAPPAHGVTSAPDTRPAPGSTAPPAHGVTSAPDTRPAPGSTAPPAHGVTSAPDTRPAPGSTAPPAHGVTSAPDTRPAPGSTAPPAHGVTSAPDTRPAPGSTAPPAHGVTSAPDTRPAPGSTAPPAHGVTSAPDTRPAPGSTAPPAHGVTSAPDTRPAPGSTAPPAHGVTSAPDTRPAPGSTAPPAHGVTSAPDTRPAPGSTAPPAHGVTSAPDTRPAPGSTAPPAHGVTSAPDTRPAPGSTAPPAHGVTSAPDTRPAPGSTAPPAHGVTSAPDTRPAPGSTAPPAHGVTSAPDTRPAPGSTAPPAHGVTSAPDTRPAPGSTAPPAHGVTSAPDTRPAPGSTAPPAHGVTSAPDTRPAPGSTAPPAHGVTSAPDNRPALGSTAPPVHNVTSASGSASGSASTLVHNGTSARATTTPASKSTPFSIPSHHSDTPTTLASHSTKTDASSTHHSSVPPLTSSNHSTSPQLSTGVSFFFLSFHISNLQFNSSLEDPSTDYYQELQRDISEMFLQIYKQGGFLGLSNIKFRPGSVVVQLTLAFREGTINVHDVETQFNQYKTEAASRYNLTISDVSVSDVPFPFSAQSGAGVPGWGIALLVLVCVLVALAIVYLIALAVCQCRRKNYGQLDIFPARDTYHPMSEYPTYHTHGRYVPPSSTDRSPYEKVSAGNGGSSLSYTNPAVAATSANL
Text: FIG. 4 illustrates staining of prostate cancer using three of the scFv described herein. The scFv is placed on the tissue on the slide and then washed off followed with a biotinylated anti mouse antibody for reaction with any bound scFv and then with a color reagent.

[2] = molecular target: T1, MUC-1 antigen expressed on MCF-7 human …; test: competitive ELISA: scFv on plated MCF-7 lysate, soluble MCF-7 lysate (MUC-1) as competitor at 1 nM
Experimental: (§1) Competitive ELISA analysis was performed in triplicate at each concentration. Incubations were carried out at 37EC for 1.5 hrs. Following each incubation, the plates were washed with PBS pH 7.4 containing 0.5% Tween 20 followed by PBS washes alone. Pro-Bind™ ELISA assay plates (Becton Dickinson Labware, Franklin Lakes, N.J.) were coated overnight at room temperature with the MCF-7 cell lysate (200 μg/well) in 15 mM sodium bicarbonate buffer pH 9.6. The ELISA plates were rinsed with PBS and blocked with PBS containing 3.0% dried non-fat milk for 1 hr. at room temperature. Ten percent bovine serum albumin (BSA) was used as a negative control. In a separate plate, soluble scFv containing 10% Tween 20 were prepared and stored on ice for 15 minutes. MCF-7 cell Tysate used as the competitor was diluted in 3% non-fat milk to provide the following concentrations 100 nM, 10 nM and 1 nM. The soluble scFv was transferred to the ELISA plate and incubated with the competitor. 100 μl of anti-E-tag diluted 1:250 in 3% non-fat milk solution was added to the wells and the plate incubated. The plate was developed with 2,2′-Amino-bis-3-ethylbenzthiazoline-6-sulfonic acid (ABTS) (Sigma-Aldrich, St. Louis, Mo.) containing 0.3% H₂O₂. The plate was read using a microplate reader at an absorbency of A₄₀₅ nM (Dynex, Chantilly, Va.). Data was generated from three separate trials and analyzed.

[3] = molecular target: T1, MUC-1 antigen expressed on MCF-7 human …; test: linear regression of competitive ELISA data
Experimental: as §1

[4] = molecular target: T1, MUC-1 antigen expressed on MCF-7 human …; test: competitive ELISA regression, estimates of single experiments
Experimental: as §1

[5] = molecular target: T1, MUC-1 antigen expressed on MCF-7 human …; test: Scatchard analysis, 125I-12E scFv on MCF-7 cells with unlabeled competitor; 25 kD fraction, monovalent
[6] = molecular target: T1, MUC-1 antigen expressed on MCF-7 human …; test: Scatchard analysis, 125I-12E scFv on MCF-7 cells with unlabeled competitor; 42 kD fraction, diabody (divalent)
[7] = molecular target: T1, MUC-1 antigen expressed on MCF-7 human …; test: competitive ELISA regression, third experiment (not statistically significant)
Experimental: as §1

[8] = molecular target: T1, MUC-1 antigen expressed on MCF-7 human …; test: competitive ELISA regression, second experiment
Experimental: as §1

B1: B5 scFv (scFv)
scFv: MAQVKLQESGAELVRPGASVTLSCKASGYTFTDYEMHWVKQTPVHGLEWIGAIDPETGGTAYNQKFKGKATLTADKSSSTAYMELRSLTSEDSAVYYCTRDGYYAWFAYWGQGTTVTVSSGGGGLGGGGSGGGGSDIELTQSPAIMSASPGERVTMTCSASSSIRYIYWYQQKPGSSPRLLIYDTSNVAPGVPFRFSGSGSGTSYSLTINRMEAEDAATYYCQEWSGYPYTFGGGTKLELKRAAAGAPVPYPDPLEPRAA
notes: The sheet prints only the panel letter G
- binding result [1]: binds

B2: anti-MUC-1 3D scFv (scFv, V domains shown)
VH: QVKLQESGPEVVKPGASVKLSCKASGYIFTSYDIDWVRQTPEQGLEWIGWIFPGEGSTEYNEKFKGRATLSVDKSSSTAYMELTRLTSEDSAVYFCARGDYYRRYFDLWGQGTTVTVSS
notes: After the linker stands a short composite of N- and C-terminal pieces of a VL, with no light-chain loops; also called clone 3D
- percent inhibition of binding with 1 nM of competitor [2]: 50%
- Ka [3]: 2.2e+08 M⁻¹ and > 1e+08 M⁻¹
- Ka [4]: 1.2e+08 to 1.5e+08 M⁻¹

B3: anti-MUC-1 12E scFv (scFv)
scFv: QVKLQQSGTEVVKPGASVKLSCKASGYIFTSYDIDWVRQTPEQGLEWIGWIFPGEGSTEYNEKFKGRATLSVDKSSSTAYMELTRLTSEDSAVYFCARGDYYRRYFDLWGQGTTVTVSSRGGGSGGGGSGGGGSDIELTQSPAIMSASPGERVTMTCSASSSIRYIYWYQQKPGSSPRLLIYDTSNVAPGVPFRFSGSGSGTSYSLTINRMEAEDAATYYCQEWSGYPYTFGGGTKLELKRAAAGAPVPYPDPLEPRAA
notes: As printed it begins with a vector leader and ends with the E-tag; Mouse scFv from pCANTAB 5E, expressed in E. coli; also called clone 12E
- percent inhibition of binding with 1 nM of competitor [2]: 50%
- Ka [3]: 1.7e+08 M⁻¹ and > 1e+08 M⁻¹

B4: 125I-anti-MUC-1 12E scFv, 25 kD fraction (monovalent) (scFv)
scFv: B3 scFv
modifications: 125I-labelled (Chloramine T method)
notes: HPLC (SEC-2000) fraction of iodinated 12E scFv, representative of the monovalent scFv; also called monomeric form of the 12E scFv
- Ka [5]: 8.6e+07 M⁻¹

B5: 125I-anti-MUC-1 12E scFv, 42 kD fraction (divalent, considered a diabody) (scFv)
scFv: B3 scFv
modifications: 125I-labelled (Chloramine T method)
notes: HPLC (SEC-2000) fraction of iodinated 12E scFv, considered to be a diabody (divalent); also called bivalent form of the 12E scFv
- Ka [6]: ~1.7e+08 M⁻¹

B6: anti-MUC-1 C4 scFv (scFv)
scFv: QVQLQESGPGLVQPSQSLSITCTVSGFSLTAYGVHWIRQSPGKGLEWLGVIWSGGGTDYNPAFISRLNINKDNSKSQVFFKVDSLQLDDRGIYYCVRRNGYFFDSWGQGTTVTVSSSGRFSGGGSGGGGSDIELTQSPASLLCLWGRGPPSHAGPTMVVSTSGYNFIYWSQQKPGQSPKLLIYLSSNLESGVPARVSGSGSRTYFTLNIHPVEEEDAATFYCRHTRELPCTFGGRTKLEIKRAAAGAPVPYPDPLEPRAA
- percent inhibition of binding with 1 nM of competitor [2]: 94%
- Ka [7]: 1.01e+09 M⁻¹
- Ka [8]: 2.3e+08 M⁻¹
